Measurements from patent publication US20090170194A1 (GOVERNORS OF THE UNIVERSITY OF ALBERTA, published 2009).

Experiments:
[1] = biological target: the molecule itself; assay: gel filtration chromatography with dTomato (dimer) and mCherry (monomer) as size standards (self-association)
From the text: (§1) FIG. 4: Characterization of mTFP1 by Gel Filtration Chromatography. Gel filtration chromatography elution profile with detection at either 450 nm or 550 nm. The upper profile is a co-injection of dTFP0.2 and mCherry (Shaner, 2004) (a red monomer), the middle profile is dTomato (Shaner, 2004) (a red dimer) and mTFP1, and the lower profile is mTFP1 alone. The small 450 nm peak at the dimer elution volume is due to the weak absorbance of dTomato at this wavelength.
(§2) The non-oligomeric structure of mTFP variants was determined by gel filtration chromatography on a HiLoad 16/60 Superdex 75 pg gel filtration column. Samples of the dimeric dTomato and the monomeric mCherry proteins (Shaner, 2004) were expressed and purified as described above and used as size standards. The AKTA basic liquid chromatography system (GE Healthcare) can monitor multiple wavelengths simultaneously. Purified TFP variants were mixed with either dTomato or mcherry and their respective elution profiles monitored separately at 450 nm and 550 nm, respectively.

[2] = biological target: the molecule itself; assay: self-association (homodimer); gel filtration chromatography (FIG. 4)
From the text: as §1, §2

[3] = biological target: the molecule itself; assay: gel filtration chromatography (self-association)
Experimental: as §2

B1: mTFP1 (other)
chain: MVSKGEETTMGVIKPDMKIKLKMEGNVNGHAFVIEGEGEGKPYDGTNTINLEVKEGAPLPFSYDILTTAFAYGNRAFTKYPDDIPNYFKQSFPEGYSWERTMTFEDKGIVKVKSDISMEEDSFIYEIHLKGENFPPNGPVMQKKTTGWDASTERMYVRDGVLKGDVKHKLLLEGGGHHRVDFKTIYRAKKAVKLPDYHFVDHRIEILNHDKDYNKVTVYESAVARNSTDGMDELYK
notes: Engineered monomeric teal fluorescent protein derived from Clavularia cFP484; Expressed from pBAD/HisB and purified on Ni-NTA; also called mTFP1.0
binding result [1]: no binding

B2: dTFP0.2 (other)
chain: MVSKGEETTMGVIKPDMKIKLKMEGNVNGHAFVIEGEGEGKPYDGTNTVNLEVKEGAPLPFSYDILSNAFQYGNRAFTKYPDDIANYFKQSFPEGYSWERTMTFEDKGIVKVKSDISMEEDSFIYEIRLKGKNFPPNGPVMQKKTLKWEPSTEILYVRDGVLVGDISHSLLLEGGGHYRCDFKTIYKAKKVVKLPDYHFVDHRIEILNHDKDYNKVTLYENAVARYSLLPPQAGMDELYK
notes: dTFP0.1 with D81N and S226P; Vector His tag probably present; also called dTFP0.20
binding result [2]: binds

B3: mTFP0.3 (other)
chain: MVSKGEETTMGVIKPDMKIKLKMEGNVNGHAFVIEGEGEGKPYDGTNTVNLEVKEGAPLPFSYDILSNAFQYGNRAFTKYPDDIANYFKQSFPEGYSWERTMTFEDKGIVKVKSDISMEEDSFIYEIRLKGKNFPPNGPVMQKKTLKWEPSTEILYVRDGVLVGDIKHKLLLEGGGHYRCDFKTIYKAKKVVKLPDYHFVDHRIEILNHDKDYNKVTLYENAVARYSLLPPQAGMDELYK
notes: dTFP0.2 with S162K and S164K; reported as a monomer; Substitution positions follow the DsRed-consistent numbering; Vector His tag probably present
binding result [3]: no binding
